In paper PMC3232311 (Biochemistry, 2011):

Biological target: the molecule itself
Assay: SEC

B1: Mycobacterium smegmatis mycothiol S-transferase (MSMEG_0887), native enzyme (enzyme, UniProt A0QQV2 1-185, looked up)
chain: MTAREPTTKTSTGSVNESAAVRELLRDAFTRLIEHVDDLTDGLTEEVSSYRPTPEANSIAWLLWHSARCQDMQLCDIAGVEQVWTRDGWIDRFDLGLPPDDIGYGHSPEEVAKVQAPAELLAGYYHAVHKVTLEYIATVTPGEMDRVVDTNWNPPVTASARLISIIDDCAQHLGQAAYLRGIIPR
stoichiometry N: 2
